Consider one substance from patent publication EP0368684A1.

Assay [1] has as its target hen egg white lysozyme (hen) (UniProt P00698). Description: calculated from the on-rate and off-rate of the stopped-flow analysis.
Assay [2] shares this target. Description: fluorescence quench titration with lysozyme.
For assay [3] the target is unchanged. Description: fluorescence quench titration, VHLYS concentration from quantitative amino acid analysis. Particulars: scale: mole of lysozyme per mole of VHLYS domain.

Chain of UniProt P00698 (P00698 19-147 limits assumed): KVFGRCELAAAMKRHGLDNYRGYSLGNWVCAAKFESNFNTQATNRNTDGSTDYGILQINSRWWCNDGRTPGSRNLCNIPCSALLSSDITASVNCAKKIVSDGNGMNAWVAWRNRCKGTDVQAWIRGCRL

In general, Kd refers to a measure of binding affinity in units of concentration. “VHLYS domain (heavy chain variable domain of the D1.3 anti-lysozyme antibody)”: the figures for the Kd in assay [1] and in assay [2] were 19 nM and 12 nM, respectively. In assay [3], this substance registered a stoichiometry (mole of lysozyme per mole of VHLYS domain) of 1.2.
